Data published in patent US20260209316A1 (US Dept. of Health and Human Services, published 2026).

B1: antibody 528S (antibody, V domains shown)
VH: EVQLAESGGGVVQPGRSLRLSCAASGFTFNSYGMHWVRQAPGKGLEWVAVIWDDGSKKYYADSVKGRFTISRDNSKNTLFLQMNSLRAEDTAVYYCARETIMFTFGEVIVSSRDNYYMDVWGKGTTVTVSS
VL: EIVLTQSPATLSLSPGERATLSCRASQSVSNYLAWYQQKPGQAPRLLIYDASTRAIGIPARFSGVGSGTDFTLTISSLEPEDFAVYYCQQRSNWPPLTFGGGTKVEIK
B2: antibody 315S (antibody, V domains shown)
VH: EVQLVESGGGVVQPGRSLRLSCAASGFTFKTYTMHWVRQAPGKGLEWVAVITDDGVNKKYADSVKGRFTISRDNSKNTLYLQMNSLRLEDTAVYYCARSVVVLAAYPLDYWGQGTMVTVSS
VL: DIQMTQSPSSLSASVGDRVTITCRASQTISTYLHWYQQRPGKAPKLLIYAASSLQSGVPSRVSGSGSGTDFTLTITSLQPEDFATYYCLQTYSLPLTFGGGTNVEIK
B3: antibody 377S (antibody, V domains shown)
VH: QVQLVQSGAEVKKPGSSVKVSCKASGGTFSNYAINWVRQAPGQGLEWMGRTIPFLGLTNYAENFQARVTITADKSTGTSYMQLSSLRSEDTAVYFCAKAATSGWSPFDNWGQGTLVTVSS
VL: EIVLTQSPGTLSLSPGERATLSCRASQSISSSYFGWYQQKPGQAPRLLIYGASRRAAGIPDRFSCSGSGTDFTLTISRLEPEDFGVYYCQQYGSSPTFGQGTKVEIK
B4: antibody 203S (antibody, V domains shown)
VH: QVQLVQSGAEVKKPGSSVKVSCKASGGTFSSYAISWVRQAPGQGLEWLGRILPALGLANYAQKYQDRVKITADKSTSTAYMELSRLGSEDTAVYYCARDRWVGAARRGQYFDYWGQGTQVTVSS
VL: DIQMTQSPATLSASVGDRVTITCRASQSIGTWLAWYQQKPGKAPKLLIYDASSLESGVPPRFSGSGSETEFTLTISSLQPDDFATYYCHQYKSYSYTFGQGTKLEIK
B5: antibody 338S (antibody, V domains shown)
VH: EVQLVESGGGVVQPGRSLRLSCAASGFTFSQYGMHWVRQAPGKGLECVAVIWFDGSKKYYGDSVKGRFTISRDNSKNTLYLQMNSLRAEDTAVYFCARESLYYYDSGGHYYERGRIDYWGQGTLVTVSS
VL: DIQMTQSPSSLSASVGDRVTITCRASQDISNFLAWFQQKPGKAPKSLIYAASSLLSGVPSKFSGSGSGTDFTLTISSLQPEDFATYYCQQYNSYPPTFGQGTKLEIK
B6: Fab generated from 380L (Fab, V domains shown)
VH: EVQLVESGGGLVQPGGSLTLSCAASGFTFGDYVMHWVRQVPGRGLEWLSAVSWSGYTTYSADSVKGRFTISRDNAKNSLYLQMSRLGTADTGLYYCVTLIGAIGIRDSFDAWGRGVLVTVSS
VL: QSVLTQPPSMSGAPGQRVTVSCTGSSSNIGAGNYVQWYQQLPGTAPKVLIYQTDKRPSGISDRFSGSKSGTSASLTISGLQSEDEADYYCQVYDSSLNGWVFGGGTRLTVL
notes: also called 380L Fab

How the values were obtained:
[1] = target: T1, mucin domain-deleted Sudan GP (GPdMuc) (Sudan virus (SUDV), UniProt Q7T9D9 33-632); assay: ELISA on coated GP
T1 construct: also called Sudan GPdMuc; GP(S)dMuc

[2] = target: T1, mucin domain-deleted Sudan GP (GPdMuc); assay: BLI competition on Sudan GPdMuc (upper table); competitor 16F6
[3] = target: T1, mucin domain-deleted Sudan GP (GPdMuc); assay: BLI competition on Sudan GPdMuc (upper table); competitor 316L
[4] = target: T1, mucin domain-deleted Sudan GP (GPdMuc); assay: BLI competition on Sudan GPdMuc (upper table); competitor 15H10
[5] = target: T1, mucin domain-deleted Sudan GP (GPdMuc); assay: BLI competition on Sudan GPdMuc (upper table); competitor mAb166
[6] = target: T1, mucin domain-deleted Sudan GP (GPdMuc); assay: BLI, Fab, pH 5.3
[7] = target: T1, mucin domain-deleted Sudan GP (GPdMuc); assay: BLI, Fab, pH 7.4
[8] = target: T2, mucin domain-deleted Zaire GP (GPdMuc) (Ebola (Zaire) virus (EBOV), UniProt Q05320 33-632); assay: BLI, Fab, pH 7.4
T2 construct: also called Zaire GPdMuc; GP(Z)dMuc

Binder | EC50 [1] [µg/mL] | % inhibition of binding [2] [%] | % inhibition of binding [3] [%] | % inhibition of binding [4] [%] | % inhibition of binding [5] [%] | Kd [6] [nM] | koff [6] [s⁻¹] | kon [6] [M⁻¹ s⁻¹] | Kd [7] [nM] | koff [7] [s⁻¹] | kon [7] [M⁻¹ s⁻¹] | Kd [8] [nM] | koff [8] [s⁻¹] | kon [8] [M⁻¹ s⁻¹]
B1 | 0.03 | 13.2 | 8.13 | 14.7 | 82 |  |  |  |  |  |  |  |  | 
B2 | 0.01 | 17.9 | 0.7 | 6.61 | -2.64 |  |  |  |  |  |  |  |  | 
B3 | 0.86 | 9.63 | 39.4 | 12.1 | 83.8 |  |  |  |  |  |  |  |  | 
B4 | 0.57 | 10.8 | 10.3 | 13.4 | 87.5 |  |  |  |  |  |  |  |  | 
B5 | 0.02 | 3.74 | 0.2 | 4.35 | -6.27 |  |  |  |  |  |  |  |  | 
B6 |  |  |  |  |  | 0.64 | 0.000109 | 172000 | 0.567 | 9.54e-05 | 168000 | 6.64 | 0.000778 | 118000
